The test system of the experiment is NPR2. Description: cGMP catchpoint assay of NPR2 variants in transfected HEK293 cells treated with 20 nM CNP. Format: cell-based. As to conditions: for average phenotype: cGMP normalized to RedLuciferase and to WT = 1, HEK293, 20 nM CNP, 0.4 nM IBMX, at least 3 repeat experiments with 4 replicates each; for Lable: high-confidence variant class. Set-up: key to Lable: loss-of-function (LoF); Gain-of-function (GoF). The protocol:
Described herein is an in-vitro assay (cGMP) to assess the activities of >260 NPR2 variants. NPR2 protein-altering variants have been identified in the UK Biobank study and described in Estrada et al. (Nat Commun. 2021 12 (1): 2224). NPR2-expression constructs were transfected into HEK293 cells and 3 days later cells were treated with […] IBMX and 20 nM CNP in serum-free DMEM prior to measuring cGMP levels. The cGMP catchpoint ELISA competition assay (Molecular Devices) was used to measure cGMP according to manufacturer recommendations. RedLuc was used as a transfection control (FIG. 8A).
The NPR2 alpha-fold structure was obtained from a recent alpha-fold publication (Jumper et al., Nature 596:583-589 (2021)). A list of phenotypically characterized “high-confidence” variants was generated (Table 4). Phenotype is calculated by determining levels of cGMP using a standard curve. This value to normalized to RedLuciferase (transfection control). This value is further normalized by setting WT to 1. Average value is calculated from at least 3 repeat experiments with 4 replicates each.

B1: Ala59Thr: NPR2 protein-altering variant, expression construct transfected into HEK293 cells (protein)
chain: RNLTLAVVLPEHNLSYAWAWPRVGPAVALAVEALGRTLPVDLRFVSSELEGACSEYLAPLSAVDLKLYHDPDLLLGPGCVYPAASVARFASHWRLPLLTAGAVASGFSAKNDHYRTLVRTGPSAPKLGEFVVTLHGHFNWTARAALLYLDARTDDRPHYFTIEGVFEALQGSNLSVQHQVYAREPGGPEQATHFIRANGRIVYICGPLEMLHEILLQAQRENLTNGDYVFFYLDVFGESLRAGPTRATGRPWQDNRTREQAQALREAFQTVLVITYREPPNPEYQEFQNRLLIRAREDFGVELGPSLMNLIAGCFYDGILLYAEVLNETIQEGGTREDGLRIVEKMQGRRYHGVTGLVVMDKNNDRETDFVLWAMGDLDSGDFQPAAHYSGAEKQIWWTGRPIPWVKGAPPSDNPPCAFDLDDPSCDKTPLSTLAIVALGTGITFIMFGVSSFLIFRKLMLEKELASMLWRIRWEELQFGNSERYHKGAGSRLTLSLRGSSYGSLMTAHGKYQIFANTGHFKGNVVAIKHVNKKRIELTRQVLFELKHMRDVQFNHLTRFIGACIDPPNICIVTEYCPRGSLQDILENDSINLDWMFRYSLINDLVKGMAFLHNSIISSHGSLKSSNCVVDSRFVLKITDYGLASFRSTAEPDDSHALYAKKLWTAPELLSGNPLPTTGMQKADVYSFGIILQEIALRSGPFYLEGLDLSPKEIVQKVRNGQRPYFRPSIDRTQLNEELVLLMERCWAQDPAERPDFGQIKGFIRRFNKEGGTSILDNLLLRMEQYANNLEKLVEERTQAYLEEKRKAEALLYQILPHSVAEQLKRGETVQAEAFDSVTIYFSDIVGFTALSAESTPMQVVTLLNDLYTCFDAIIDNFDVYKVETIGDAYMVVSGLPGRNGQRHAPEIARMALALLDAVSSFRIRHRPHDQLRLRIGVHTGPVCAGVVGLKMPRYCLFGDTVNTASRMESNGQALKIHVSSTTKDALDELGCFQLELRGDVEMKGKGKMRTYWLLGERKGPPGLL
On to B1, for which the average phenotype is recorded as 3.735 and the Lable entry is reported as “GoF”.

B2: Thr377Asn: NPR2 protein-altering variant, expression construct transfected into HEK293 cells (protein)
chain: RNLTLAVVLPEHNLSYAWAWPRVGPAVALAVEALGRALPVDLRFVSSELEGACSEYLAPLSAVDLKLYHDPDLLLGPGCVYPAASVARFASHWRLPLLTAGAVASGFSAKNDHYRTLVRTGPSAPKLGEFVVTLHGHFNWTARAALLYLDARTDDRPHYFTIEGVFEALQGSNLSVQHQVYAREPGGPEQATHFIRANGRIVYICGPLEMLHEILLQAQRENLTNGDYVFFYLDVFGESLRAGPTRATGRPWQDNRTREQAQALREAFQTVLVITYREPPNPEYQEFQNRLLIRAREDFGVELGPSLMNLIAGCFYDGILLYAEVLNETIQEGGTREDGLRIVEKMQGRRYHGVNGLVVMDKNNDRETDFVLWAMGDLDSGDFQPAAHYSGAEKQIWWTGRPIPWVKGAPPSDNPPCAFDLDDPSCDKTPLSTLAIVALGTGITFIMFGVSSFLIFRKLMLEKELASMLWRIRWEELQFGNSERYHKGAGSRLTLSLRGSSYGSLMTAHGKYQIFANTGHFKGNVVAIKHVNKKRIELTRQVLFELKHMRDVQFNHLTRFIGACIDPPNICIVTEYCPRGSLQDILENDSINLDWMFRYSLINDLVKGMAFLHNSIISSHGSLKSSNCVVDSRFVLKITDYGLASFRSTAEPDDSHALYAKKLWTAPELLSGNPLPTTGMQKADVYSFGIILQEIALRSGPFYLEGLDLSPKEIVQKVRNGQRPYFRPSIDRTQLNEELVLLMERCWAQDPAERPDFGQIKGFIRRFNKEGGTSILDNLLLRMEQYANNLEKLVEERTQAYLEEKRKAEALLYQILPHSVAEQLKRGETVQAEAFDSVTIYFSDIVGFTALSAESTPMQVVTLLNDLYTCFDAIIDNFDVYKVETIGDAYMVVSGLPGRNGQRHAPEIARMALALLDAVSSFRIRHRPHDQLRLRIGVHTGPVCAGVVGLKMPRYCLFGDTVNTASRMESNGQALKIHVSSTTKDALDELGCFQLELRGDVEMKGKGKMRTYWLLGERKGPPGLL
For B2, the average phenotype stood at 0.01062 and the Lable result is given as “LoF”.

B3: Arg776Trp: NPR2 protein-altering variant, expression construct transfected into HEK293 cells (protein)
chain: RNLTLAVVLPEHNLSYAWAWPRVGPAVALAVEALGRALPVDLRFVSSELEGACSEYLAPLSAVDLKLYHDPDLLLGPGCVYPAASVARFASHWRLPLLTAGAVASGFSAKNDHYRTLVRTGPSAPKLGEFVVTLHGHFNWTARAALLYLDARTDDRPHYFTIEGVFEALQGSNLSVQHQVYAREPGGPEQATHFIRANGRIVYICGPLEMLHEILLQAQRENLTNGDYVFFYLDVFGESLRAGPTRATGRPWQDNRTREQAQALREAFQTVLVITYREPPNPEYQEFQNRLLIRAREDFGVELGPSLMNLIAGCFYDGILLYAEVLNETIQEGGTREDGLRIVEKMQGRRYHGVTGLVVMDKNNDRETDFVLWAMGDLDSGDFQPAAHYSGAEKQIWWTGRPIPWVKGAPPSDNPPCAFDLDDPSCDKTPLSTLAIVALGTGITFIMFGVSSFLIFRKLMLEKELASMLWRIRWEELQFGNSERYHKGAGSRLTLSLRGSSYGSLMTAHGKYQIFANTGHFKGNVVAIKHVNKKRIELTRQVLFELKHMRDVQFNHLTRFIGACIDPPNICIVTEYCPRGSLQDILENDSINLDWMFRYSLINDLVKGMAFLHNSIISSHGSLKSSNCVVDSRFVLKITDYGLASFRSTAEPDDSHALYAKKLWTAPELLSGNPLPTTGMQKADVYSFGIILQEIALRSGPFYLEGLDLSPKEIVQKVRNGQRPYFRPSIDRTQLNEELVLLMERCWAQDPAEWPDFGQIKGFIRRFNKEGGTSILDNLLLRMEQYANNLEKLVEERTQAYLEEKRKAEALLYQILPHSVAEQLKRGETVQAEAFDSVTIYFSDIVGFTALSAESTPMQVVTLLNDLYTCFDAIIDNFDVYKVETIGDAYMVVSGLPGRNGQRHAPEIARMALALLDAVSSFRIRHRPHDQLRLRIGVHTGPVCAGVVGLKMPRYCLFGDTVNTASRMESNGQALKIHVSSTTKDALDELGCFQLELRGDVEMKGKGKMRTYWLLGERKGPPGLL
In the case of B3, the average phenotype was determined as 0.01312 and the Lable result is “LoF”.

B4: Lys367Glu: NPR2 protein-altering variant, expression construct transfected into HEK293 cells (protein)
chain: RNLTLAVVLPEHNLSYAWAWPRVGPAVALAVEALGRALPVDLRFVSSELEGACSEYLAPLSAVDLKLYHDPDLLLGPGCVYPAASVARFASHWRLPLLTAGAVASGFSAKNDHYRTLVRTGPSAPKLGEFVVTLHGHFNWTARAALLYLDARTDDRPHYFTIEGVFEALQGSNLSVQHQVYAREPGGPEQATHFIRANGRIVYICGPLEMLHEILLQAQRENLTNGDYVFFYLDVFGESLRAGPTRATGRPWQDNRTREQAQALREAFQTVLVITYREPPNPEYQEFQNRLLIRAREDFGVELGPSLMNLIAGCFYDGILLYAEVLNETIQEGGTREDGLRIVEEMQGRRYHGVTGLVVMDKNNDRETDFVLWAMGDLDSGDFQPAAHYSGAEKQIWWTGRPIPWVKGAPPSDNPPCAFDLDDPSCDKTPLSTLAIVALGTGITFIMFGVSSFLIFRKLMLEKELASMLWRIRWEELQFGNSERYHKGAGSRLTLSLRGSSYGSLMTAHGKYQIFANTGHFKGNVVAIKHVNKKRIELTRQVLFELKHMRDVQFNHLTRFIGACIDPPNICIVTEYCPRGSLQDILENDSINLDWMFRYSLINDLVKGMAFLHNSIISSHGSLKSSNCVVDSRFVLKITDYGLASFRSTAEPDDSHALYAKKLWTAPELLSGNPLPTTGMQKADVYSFGIILQEIALRSGPFYLEGLDLSPKEIVQKVRNGQRPYFRPSIDRTQLNEELVLLMERCWAQDPAERPDFGQIKGFIRRFNKEGGTSILDNLLLRMEQYANNLEKLVEERTQAYLEEKRKAEALLYQILPHSVAEQLKRGETVQAEAFDSVTIYFSDIVGFTALSAESTPMQVVTLLNDLYTCFDAIIDNFDVYKVETIGDAYMVVSGLPGRNGQRHAPEIARMALALLDAVSSFRIRHRPHDQLRLRIGVHTGPVCAGVVGLKMPRYCLFGDTVNTASRMESNGQALKIHVSSTTKDALDELGCFQLELRGDVEMKGKGKMRTYWLLGERKGPPGLL
As to B4, the average phenotype was found to be 0.01438 and the Lable entry is listed as “LoF”.

The values above are taken from patent publication US20250032576A1, “CNP Therapy” (BIOMARIN PHARMACEUTICAL INC., priority 2021, published 2025).
